Each block holds one molecule with its values, some of them ahead of it. No end group written: not given here.
Assays:
[1] = test system: OxaR CRC cells (HT29, HCT116 and SW480); experiment: WST-8-based cell viability assay in parental and drug-resistant CRC cell lines; conditions: HT29, HCT116, SW480 OxaR; 24 hours
Source text: To establish a CRC cell model resistant to oxaliplatin, doxorubicin, or 5-FU, HT29, HT116, and SW480 cells were exposed to progressively increasing concentrations of oxaliplatin, doxorubicin, or 5-FU. The established oxaliplatin, doxorubicin, and 5-FU resistant cells were named OxaR, DoxR, and 5-FuR cells, respectively.
To confirm the inhibitory effect of rCT-S100A8/A9 on oxaliplatin resistance, the present inventors performed a water-soluble tetrazolium-8 (WST-8)-based cell viability assay using parental cells of three CRC cell lines, HT29, HCT-116 and SW480, and their corresponding oxaliplatin-resistant (OxaR) cell lines. OxaR CRC cells (HT29, HCT116 and SW480) were established by long-term exposure of CRC cells to oxaliplatin as described in Example 1.

[2] = The results of in vitro plasma stability, microsomal stability, CYP inhibition and PK profile of S100A8/A9 peptides and rCT-S100A8/A9 proteins; conditions: mouse, plasma, ip, 1 mg/kg
Description: Table printed on a drawing sheet, Fig. 5B
Title: The results of in vitro plasma stability, microsomal stability, CYP inhibition and PK profile of S100A8/A9 peptides and rCT-S100A8/A9 proteins
The patent's description of the figure: FIGS. 5A and 5B show the drug-like properties of rCT-S100A8/A9. […] Bacteria-purified 6×His-rCT-S100A8/9, rVehicle or rCT was analyzed by Coomassie staining or IB using αHis (bottom, left). BMDMs were incubated with rVehicle, rCT, or rCT-S100A8/9 for the indicated times and at the indicated concentrations, and then cell viability was measured by MTT assay (bottom, right). […] HLM, human liver microsomes; CYP, cytochrome P450. aTmax, arrival time; AUClast, total area under the plasma concentration-time curve from time 0 to the time of the last measurement; Cmax, maximum plasma concentration;
First reader's note: All values were measured after ip dosing of 1 mg/kg in mice (n = 5); the footnote for the raised a is not printed on the sheet, and the title stands once above both tables.

[3] = molecular target: T1, endogenous TLR4 of mouse BMDMs and mouse colon (mouse, UniProt Q9QUK6 26-835); experiment: co-IP in BMDMs incubated with recombinant protein at 5 µg/ml (IP αTLR4, IB αHis), FIG. 1A
T1 construct: whole, on cells; Endogenous protein, immunoprecipitated with αTLR4 from BMDM or colon lysates; also called toll-like receptor 4
T1 sequence (looked up): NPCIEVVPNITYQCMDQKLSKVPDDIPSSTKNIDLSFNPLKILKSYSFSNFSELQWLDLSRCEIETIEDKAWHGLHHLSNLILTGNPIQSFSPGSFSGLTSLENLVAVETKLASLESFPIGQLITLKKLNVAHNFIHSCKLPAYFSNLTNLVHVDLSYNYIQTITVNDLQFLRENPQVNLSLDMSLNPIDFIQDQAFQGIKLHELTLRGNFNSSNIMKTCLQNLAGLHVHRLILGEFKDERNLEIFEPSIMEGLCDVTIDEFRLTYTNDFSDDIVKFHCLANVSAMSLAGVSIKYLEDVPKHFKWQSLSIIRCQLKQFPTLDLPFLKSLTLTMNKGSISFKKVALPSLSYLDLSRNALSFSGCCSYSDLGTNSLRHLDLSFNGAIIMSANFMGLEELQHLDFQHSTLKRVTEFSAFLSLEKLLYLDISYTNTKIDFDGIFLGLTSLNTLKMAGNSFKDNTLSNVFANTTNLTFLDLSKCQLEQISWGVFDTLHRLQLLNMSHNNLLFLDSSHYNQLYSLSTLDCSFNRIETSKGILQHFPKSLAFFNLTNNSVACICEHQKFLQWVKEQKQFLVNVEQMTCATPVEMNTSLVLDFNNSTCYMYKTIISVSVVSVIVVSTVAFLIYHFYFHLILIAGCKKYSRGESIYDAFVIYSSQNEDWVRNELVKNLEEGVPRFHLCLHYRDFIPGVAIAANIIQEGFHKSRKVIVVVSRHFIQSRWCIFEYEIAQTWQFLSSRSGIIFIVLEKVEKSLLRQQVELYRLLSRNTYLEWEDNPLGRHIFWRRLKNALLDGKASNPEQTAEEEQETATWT
Description: (§1) The 293T cells were used for immunoprecipitation (IP) including αMyc, and then for immunoblotting (IB) including αHA or αHis. […] Bone marrow-derived macrophages (BMDMs) were incubated with rHA-S100A8 or rHis-S100A9 (5 μg/ml) for 10 minutes. The BMDMs were subjected to IP using αTLR4 (FIG. 1A, right) or αRAGE (FIG. 1B, right), and then subjected to IB using αHA, αHis, αTLR4, or αRAGE. The WCLs were used for IB including αHA, αHis, αTLR4, αRAGE, or αActin. In FIG. 1C, on the left, relative expression of S100A8 or S100A9 in colons of normal, acute colitis, chronic colitis, and colorectal cancer mice was determined, and biological replicates (n=10) were used for each condition. On the right, IB was performed on sera from normal, acute colitis, chronic colitis, and colorectal cancer mice using αS100A8 or αS100A9. Coomassie blue (CB)-stained gels show consistent loading of serum proteins. Data from 3 out of 10 samples is shown. […] The WCLs were used for IB including αS100A8, αS100A9, αTLR4, αRAGE, or αActin. Data is representative of seven independent experiments with similar results (FIGS. 1A-1D);
(§2) 293T, BMDMs, and THP-1 cells were treated as indicated and processed for analysis by GST pulldown, Western blotting, and co-IP analysis. For GST pulldown, 293T cells were harvested and lysed in an NP-40 buffer including a complete protease inhibitor cocktail (Roche, Basel, Switzerland). […]

[4] = molecular target: T2, endogenous RAGE of mouse BMDMs and mouse colon (mouse, UniProt Q62151 23-402); experiment: co-IP in BMDMs incubated with recombinant protein at 5 µg/ml (IP αRAGE, IB αHis), FIG. 1B
T2 construct: whole, on cells; Endogenous protein, immunoprecipitated with αRAGE from BMDM or colon lysates; also called receptor for advanced glycation end products
Description: as §1, §2

TLR4 or RAGE = experiment: Co-IP of recombinant S100A8 or S100A9 with endogenous TLR4 or RAGE in BMDMs; format: binding, mouse; conditions: 5 μg/ml, 10 minutes
Description: 293T, BMDMs, and THP-1 cells were treated as indicated and processed for analysis by GST pulldown, Western blotting, and co-IP analysis. For GST pulldown, 293T cells were harvested and lysed in an NP-40 buffer including a complete protease inhibitor cocktail (Roche, Basel, Switzerland). After centrifugation, the supernatant was pre-cleared using protein A/G beads for two hours at 4° C. The pre-cleared lysates were mixed with a 50% slurry of glutathione-conjugated Sepharose beads (Amersham Biosciences, Amersham, UK), and binding reactions were performed for four hours at 4° C. by incubating the lysates at 4° C. The precipitate was extensively washed with a lysis buffer. Proteins bound to the glutathione beads were eluted by boiling for five minutes in a sodium dodecyl sulfate (SDS) loading buffer. For IP, cells were harvested and lysed in an NP-40 buffer supplemented with a complete protease inhibitor cocktail (Roche, Switzerland). […] For immunoblotting (IB), polypeptides were analyzed by SDS-polyacrylamide gel electrophoresis and transferred to polyvinylidene difluoride (PVDF) membranes (Bio-Rad, Hercules, CA, USA). […] Antibody binding was visualized by chemiluminescence (ECL; Millipore, Burlington, MA, USA) and detected using a Vilber chemiluminescence analyzer (Fusion SL 3; Vilber Lourmat). […]

[5] = molecular target: T2, endogenous RAGE of mouse BMDMs and …; experiment: co-IP from colon lysates of acute colitis, chronic colitis and CRC mice (IP αRAGE, IB αS100A9), FIG. 1D
Description: as §1, §2

[6] = molecular target: T1, endogenous TLR4 of mouse BMDMs and …; experiment: co-IP from colon lysates of acute colitis, chronic colitis and CRC mice (IP αTLR4, IB αS100A9), FIG. 1D
Description: as §1, §2

[7] = molecular target: T2, endogenous RAGE of mouse BMDMs and …; experiment: co-IP from colon lysates of acute colitis, chronic colitis and CRC mice (IP αRAGE, IB αS100A8), FIG. 1D
Description: as §1, §2

[8] = molecular target: T1, endogenous TLR4 of mouse BMDMs and …; experiment: co-IP from mouse colon lysates (IP αTLR4, IB αS100A8), FIG. 1D
Description: as §1, §2

[9] = molecular target: T2, endogenous RAGE of mouse BMDMs and …; experiment: co-IP in BMDMs incubated with recombinant protein at 5 µg/ml (IP αRAGE, IB αHA), FIG. 1B
Description: as §1, §2

[10] = molecular target: T1, endogenous TLR4 of mouse BMDMs and …; experiment: co-IP in BMDMs incubated with recombinant protein at 5 µg/ml (IP αTLR4, IB αHA), FIG. 1A
Description: as §1, §2

T2 sequence (Q62151 23-402): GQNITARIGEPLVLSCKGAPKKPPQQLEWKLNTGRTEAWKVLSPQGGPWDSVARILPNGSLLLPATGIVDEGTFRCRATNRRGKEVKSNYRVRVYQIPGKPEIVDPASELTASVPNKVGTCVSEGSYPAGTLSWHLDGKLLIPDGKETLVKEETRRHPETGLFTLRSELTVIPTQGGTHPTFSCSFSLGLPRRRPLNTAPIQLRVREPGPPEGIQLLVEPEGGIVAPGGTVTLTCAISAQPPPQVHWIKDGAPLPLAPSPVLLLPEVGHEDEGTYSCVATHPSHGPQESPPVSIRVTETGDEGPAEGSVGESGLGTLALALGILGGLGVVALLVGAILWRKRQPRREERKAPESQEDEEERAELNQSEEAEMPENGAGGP

Molecule: O=C1[O][Pt]2([NH][C@@H]3CCCC[C@H]3[NH]2)[O]C1=O [oxaliplatin, reference compound]
cell viability of OxaR CRC cells [1]: significant resistance to oxaliplatin treatment

Cmax ([2]; read-out: PK parameters (ip, 1 mg/kg, mice (n = 5))^a | Cmax): 102 ± 41.2 ng/mL | half-life ([2]; read-out: PK parameters (ip, 1 mg/kg, mice (n = 5))^a | T1/2 (converted)): 25.2 ± 30.6 min
Molecule: FLVIKGGAHKSHKGGITIITFGGGHHGG [S100A8/A9]

binding result [3]: binds | binding result [4]: binds
B1: rHis-mS100A9 (ligand)
chain: ANKAPSQMERSITTIIDTFHQYSRKEGHPDTLSKKEFRQMVEAQLATFMKKEKRNEALINDIMEDLDTNQDNQLSFEECMMLMAKLIFACHEKLHENNPRGHGHSHGKGCGK
notes: Recombinant protein added to BMDMs at 5 µg/ml; also called rHis-S100A9; rS100A9; not shown: His tag

B2: rHis-mS100A9: recombinant His-tagged S100A9 protein (protein)
chain: ANKAPSQMERSITTIIDTFHQYSRKEGHPDTLSKKEFRQMVEAQLATFMKKEKRNEALINDIMEDLDTNQDNQLSFEECMMLMAKLIFACHEKLHENNPRGHGHSHGKGCGK
modifications: left off: small tags and cut ends
notes: recombinant His-tagged S100A9 protein
binding to PRRs (TLR4 and RAGE) (TLR4 or RAGE): stronger binding to PRRs (TLR4 and RAGE) than rHA-mS100A8

binding result [5]: binds | binding result [6]: binds
B3: endogenous mouse S100A9 (ligand, UniProt P31725 2-113, looked up)
chain: ANKAPSQMERSITTIIDTFHQYSRKEGHPDTLSKKEFRQMVEAQLATFMKKEKRNEALINDIMEDLDTNQDNQLSFEECMMLMAKLIFACHEKLHENNPRGHGHSHGKGCGK
notes: Endogenous protein detected with αS100A9 in co-immunoprecipitates

binding result [7]: binds | binding result [8]: binds
B4: endogenous mouse S100A8 (ligand, UniProt P27005 2-89, looked up)
chain: PSELEKALSNLIDVYHNYSNIQGNHHALYKNDFKKMVTTECPQFVQNINIENLFRELDINSDNAINFEEFLAMVIKVGVASHKDSHKE
notes: Endogenous protein detected with αS100A8 in co-immunoprecipitates

binding result [9]: binds | binding result [10]: binds
B5: rHA-mS100A8 (ligand)
chain: PSELEKALSNLIDVYHNYSNIQGNHHALYKNDFKKMVTTECPQFVQNINIENLFRELDINSDNAINFEEFLAMVIKVGVASHKDSHKE
notes: Recombinant protein added to BMDMs at 5 µg/ml; also called rHA-S100A8; rS100A8; not shown: HA tag

From US20250154215A1, “PHARMACEUTICAL COMPOSITION FOR TREATING COLITIS OR COLORECTAL CANCER COMPRISING COLON-TARGETED S100A8/A9-DERIVED SPECIFIC PEPTIDE” (Industry-University Cooperation Foundation Hanyang …, priority 2023, published 2025)
